{"source": "paper PMC4485566", "key": {"[1]": {"target": "His79 (UniProt position 85, YIPGTHMAFGG)", "assay": "UV-vis", "settings": "ferric protein implied, His79-mediated alkaline transition"}, "[2]": {"target": "His73 (UniProt position 79, LTNPKHYIPGT)", "assay": "UV-vis", "settings": "ferric protein implied (alkaline transition); cited from earlier work"}}}
{"substance": "iso-1-cytochrome c, WT*/K79H variant (Saccharomyces cerevisiae; K72A;K79H;C102S)", "values": [{"measurement": "pKa", "setting": "[1]; cited from earlier work", "value": "6.35 ± 0.04"}]}
{"substance": "iso-1-cytochrome c, yWT/K73H variant (Saccharomyces cerevisiae; K73H)", "values": [{"measurement": "pKa", "setting": "[2]", "value": "6.60 ± 0.06"}]}
{"substance": "iso-1-cytochrome c, yWT/K79H variant (Saccharomyces cerevisiae; K79H)", "values": [{"measurement": "pKa", "setting": "[1]", "value": "6.62 ± 0.08"}]}
